Assay results reported in a protein production outcome set (Wang et al. 2014).

Assay: label from the status in PepcDB records
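Note: failed if final PepcDB status was selected cloned or expressed and not failed if soluble or beyond.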

Row | Sequence | protein production
1 | MFALIILISAIIFGIISYFTGKHAKEVSAVLSGILLLEIIAYSIMRFSSYSGGFISRYSVVISSSLGLSFSIAVSGLTDALLILSAVVILIAVLITDRNYGSAFFGLEMTVLAGLIGLLISRDFLFFYIFWEVVLIPVYFMIGRYGIGNKNSISLKFFVYTHIGSVFILLSIFTLYSQSYVYLASPTFEIGPLMSILPKLSLFYKGFVIFGFLFGFLVKMPSFPIHSWLPDSYYSAPYPGSVILAGAISMMGGYGLFGIMIESYKALDVYVLYLLIALGIISLIYFALTAMFQRNIKKMMAFASASAMGFVTISFAASILETSGIDYSVRALEAAGGMFQIVAHGLIMSLVFSALYYISRNTKTDSVYGLGGIYREAPKLASLTLVGLLASLGLPGFAGFIGEFSIVVGVFQTVSWYIFLIIFGMIITASYHIWTAQRSLYGPYNENLGFIRDINSGEFMILIFLVLVIFVLGIYPNLIFANLVNYTNTSLSISVEPALRTNVVAFLEAHVFEVMQ | failed
2 | MSKLIVPQWPQPKGVAACSSTRIGGVSLPPYDSLNLGAHCGDNPDHVEENRKRLFAAGNLPSKPVWLEQVHGKDVLKLTGEPYASKRADASYSNTPGTVCAVMTADCLPVLFCNRAGTEVAAAHAGWRGLCAGVLEETVSCFADNPENILAWLGPAIGPRAFEVGGEVREAFMAVDAKASAAFIQHGDKYLADIYQLARQRLANVGVEQIFGGDRCTYTENETFFSYRRDKTTGRMASFIWLI | not failed
3 | MLKRTLLACLALSCSFPSYSADYITENLSTYMRKGAGDQYKIAGTIQAGEKITVLDRKDRFVLIRDSRNREGWVLNNEISQTASPKELIPELQQQIQDLSSKLNKIDNDWQQRTAEMQRRSQQAEQQSSELLDENTQLKRKLEVLKNKNRDLETMQDAEKREIVIQWFIYGGSVLTVGLLLGLLIPFILPRRRRNNGWSLEHHHHHH | failed
4 | MQHGARHRWGLTSGYRPGSGRRPGPSAVVAVAAFALVVASQGAAVARPAQAAAADREFASSFESGEPAPDWLSTVDTAADGSKRASGVDGGYSTGIPGNVTDHVTDVRAGAENTGAGEVKENLVDGESSTKWLTFTPTGWAEFDLDAPVKLVTYALTSANDADERDPADWTLQGSTDGKDWKTLDTRTGESFAERFQTKSYDLASPAEYQHFRLDITKNHGADLLQLADVQFSTGGTSDPAPKDMLSLVDRGPSGSPTAKAGAGFTGKRALRYAGTHKADARAYSYNKVFDVNVGVGRDTELSYRIFPSMADKDRDYDATNVSVDLVFTDGTYLSDLKATDQHGFALTPQGQGAAKILYVNQWNNVVSRIGSVAAGRTVDRILVAYDSPKGPAKFRGWLDDIALKAAPPEKPKAHLSDYALTTRGTNSSSGFSRGNNFPATAVPHGFNFWTPVTNAGSLSWLYDYARSNNADNLPTIQAFSASHEPSPWMGDRQTFQVMPSAASGTPDTGRTARALAFRHENETARPYYYGVTFENGLKAEMAPTDHAAALRFTYPGDDASVLFDNVTDQAGLTLDKEHGIVTGYSDVKSGLSTGATRLFVYGVFDAPVKEGASSGVKGYLRFAPGADHTVTLRLATSLISVDQAKDNLGQEIPDGTSFTTVKNRAQQQWDKLLGKVEVEGATPDQLTTLYSSMYRLYLYPNSGFEKIGSKYRYASPFQPMPSPDTPTHTGAKIVDGKVYVNNGFWDTYRTTWPAYSFLTPGQAGEMVDGFVQQYKDGGWTSRWSSPGYADLMTGTSSDVAFADAYVKGVDFDAKAAYDAAVKNATVVPPSSGVGRKGMATSPFLGYTSTDTSEGLSWAMEGYNNDYGIARMGQALYKKTGKKRYKEEAAYFLNRAQDYVKLFDGKAGFFQGRDGKGDWRVDSATYDPRVWGYDYTETNGWGYAFTAPQDSRGLANLYGGRGALAKKLDTYFATPETASPDFVGSYGGVIHEMTEARDVRMGMYGHSNQVAHHVNYMYDAAGRPWKTQANVREVLSRLYTGSEIGQGYHGDEDNGEQSAWYLFSALGFYPLVMGSGEYAIGSPLFTKATVHLENGRDLVVKAPKNSAKNVYVQGLKVNGKKWTSTSLPHSLIAKGGVLAFDMGAKPSSWGSGGGAGPVSITKGDQVPSPRADAIKGGGALFDDTSATSATVTSVELPVAARTKAVQYTLTSSSDHTAAPAGWVLEASADGTHWTTVDRRTDESFTWDRQTRVFSIAHPGKYAHYRLVPTAEATLAEVELLS | failed
5 | MARPQDPPRGFFPFGNPFKNLSSKNSVLSSKLLPLLNNFETNLASSISKLVPKEKSDILTVSWMKQAMESLCETHNGIKTLITDLELPVSDWEDKWVDVYLDISVKLLDLCNAFSSELTRLNQGHLLLQFALHNLEANSPQNLSKAQSSLDSWKQHIVSKNPRIENCRAILSSLVQTLNLPKVKNSAKGKVLMRALYGVKVKTLYISGVFAAAFSGSSQNLMYLTVSNELPWAQSFMEVQNTMNAEIKNIFLSDGLTVLKELEAVASGVKKLYPAIQQGSIDPISLQPLKDSVTELSNGIDLVSKEVDCFFKILLSGRDTLLENLRSMGASTLQATSPKKAAGKNYRGF | failed
6 | MSTVRSIYYRGSLEHCNYTCSYCPFGRKSVSADTTEDQEALDRFISRIGGWKYGSLRILIIPYGEAMIHRYYREGIMRLAAMPHVIGVSCQTNLSFSVSRFLDEAEAEQADVSKFRFWASYHPEMVGVGEFASKVEMLRAAGIGVCAGAVGDPSAKEQIRKLRQLLDPSVYLFVNAMQGLRKPLSEEDIRFFGEIDNLFDYDRRNAKACLDGCVGGRETLFIDRKGDMYACPRSGIRMGNFYDDSTSDFQPFCLRKVCDCYIAFSNLCDTPLRRMMGDGALWRIPERKKVEAVFFDVDGTLTDAQGRIPDRTVSVLEYMAKRLPLYLSTALPVSHAKKRLGNVFGLFSGGVFADGGLLCYGETIECVPIANPMTAGFPGCRVTRYTREGKVFKYAVLAPNTREAVRWLTELDEEAYQLYQEGRLLTVVDSKASKKNGLITLCARLGISLREVLVVGNTMHDWPMMSVAGYSCAVMDAEEKLRKLSGYVLNPDSIPVFFDILEHHHHHH | failed
7 | MPDITISWVAAILGLVVAIVLILKKFNPVYSLFFGAIVGCLIGGASLSDTVAVLLNGTQSIMGTAIRVLAAGMLAGVMMESGAAESIANAIVQKLGEKKAILSLALSTMVITAVGVFIPVAVLIVAPIALSVGKSTGISKLSLLIALSGGGKAGNIISPNPNTIAAANGFDLPLSDVMIAGFIPAVFGLITAVVLANIMRNKGSMVKETDLVEEQTKELLPLKKALIAPVLAIVLLLLNPIGAVLNISFIKSLNIDALYILPFASVVGTIAIGQTKQLAFYASSGLKRVTDTVLILIGAGAIAGLISVSDLSTQIVHLISVMGISGTFLAPISGILMGLAVGSTSTAVILATGSFGPAILDMGTSSLSAAVMVHTGATVIDSVPQGNYFHITAQSMNMTIKERIRVIPYEMCVGGVMTIVATILYGFILN | failed
8 | MSLSKDNIWKLLAPLVVMGVMLLIPVPDGMPPQAWHYFAVFVAMIVGMILEPIPATAISFIAVTICVIGSNYLLFDASELADPAFKASKQALKWGLAGFSSTTVWLVFGAFIFALGYEVTGLGRRIALFLVKFMGKRTLTLGYAIVIIDILLAPFTPSNTARTGGTVFPVIKNLPPLFKSFPNDPSARRIGGYLMWMMVISTSLSSSMFVTGAAPNVLGLEFVSKIAGVQISWLQWFLSFLPVGIILLIVAPWLSYVLYKPEVTHSAEVAAWAGGELKNMGRLSRKEWTLIGLVLLSLGLWVFGGKIINATAVGLLAVSLMLALHVVPWKDITRYNSAWNTLVNLATLVVMANGLTRSGFIDWFANTMSTHLEGFSPDATVIVLVLVLVLVLVLVLVLVLVLVLVLVLVLVFYFAHYLFASLSAHTATMLPVILAVGKGIPGVPMEQLCILLVLSIGIMGCLTPYATGPGVIIYGCGYVKSRDYWRLGAIFGVIYIAMLLLVGWPILAMWN | failed
